Experimental data as given in article PMC4155686, “Oleoyl Coenzyme A Regulates Interaction of Transcriptional Regulator RaaS (Rv1219c) with DNA in Mycobacteria*” (The Journal of Biological Chemistry, 2014).
Positions count from the first letter of the chain named. Numbers in names are those of the source.

Legend:
[1] = molecular target: the molecule itself; assay: small-angle X-ray scattering; protein alone in solution at 1 and 3 mg/ml, data extrapolated to infinite dilution; apparent molecular mass from I(0)
RaaS R144A = molecular target: T1, RaaS R144A (Mycobacterium tuberculosis, UniProt O86312 1-212, R144A); assay: fluorescence anisotropy; 4 nM DNA; FA: 50 mM Tris-HCl pH 8.5, 150 mM NaCl, temperature not stated; EMSA: 50 mM Tris-HCl pH 8.0, 1 mM EDTA, 50 mM NaCl, 4% glycerol, sheared salmon sperm DNA (printed as 1 g per reaction), 10 min, room temperature; details: protein: recombinant; chain copies: 2
T1 sequence: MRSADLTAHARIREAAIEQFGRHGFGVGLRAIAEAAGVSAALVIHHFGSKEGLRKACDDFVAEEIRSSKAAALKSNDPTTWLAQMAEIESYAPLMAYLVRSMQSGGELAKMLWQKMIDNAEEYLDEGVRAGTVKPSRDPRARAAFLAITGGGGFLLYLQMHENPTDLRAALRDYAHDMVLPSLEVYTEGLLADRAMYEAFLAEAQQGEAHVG

RaaS Y174A = molecular target: T2, RaaS Y174A (Mycobacterium tuberculosis, UniProt O86312 1-212, Y174A); assay: as above; details: protein: recombinant; chain copies: 2
T2 sequence: T1 sequence with A144R, Y174A

RaaS R140A = molecular target: T3, RaaS R140A (Mycobacterium tuberculosis, UniProt O86312 1-212, R140A); assay: fluorescence anisotropy; 4 nM DNA; details: protein: recombinant; chain copies: 2
T3 sequence: T1 sequence with R140A, A144R

B1: RaaS (Rv1219c) R144A mutant (natural protein)
chain: T1 sequence
- stoichiometry N [1]: 2

B2: RaaS (Rv1219c) Y174A mutant (natural protein)
chain: T1 sequence with A144R, Y174A
- stoichiometry N [1]: 2

B3: Pr14F/Pr14R (ATTO 647N) (dsDNA)
DNA 1: GGGATGAACGTACGTTTAATATCCTGAACATGCGTTCAG
DNA 2: GGGCTGAACGCATGTTCAGGATATTAAACGTACGTTCAT
- Kd (RaaS R144A): 129 ± 70 nM
- Kd (RaaS Y174A): 611 ± 120 nM
- Kd (RaaS R140A): 654 ± 300 nM
